Test [1] deals with T1, hHER3 full length (human, UniProt P21860 20-1342). As to the kind of experiment: cell-based or functional assay.
Test [2] deals with T2, human HER1 (human, UniProt P00533 25-1210).
T2 construct: also called EGFR; ErbB1
The experiment in a line: FACS CHO-HER1, 2000 nM.

In test [3] the target is T3, human HER4 (human, UniProt Q15303 26-1308). As to the kind of experiment: FACS CHO-HER4, 2000 nM.
Test [4] addresses T4, hHER3 ECD (human HER3 extracellular domain) (human, UniProt P21860 20-643).
T4 construct: also called recombinant HER3-ECD
The experiment in a line: ELISA, coated hHER3-ECD.

The target in test [5] is T2, human HER1. As to the kind of experiment: FACS CHO-HER1, 222 nM.
For test [6], the target named is T1, hHER3 full length. The experiment in a line: FACS, 400 nM, competitor 18E08-biotin.
In test [7] the target is T1, hHER3 full length. The experiment in a line: FACS, 400 nM, competitor 21B02-biotin.
Test [8] addresses T3, human HER4. The experiment in a line: FACS CHO-HER4, 667 nM.
In test [9] the target is T5, human HER2 (human, UniProt P04626 23-1255).
T5 construct: also called hHER2
The experiment in a line: FACS CHO-HER2, 222 nM.

The target in test [10] is T5, human HER2. The experiment in a line: FACS CHO-HER2, 2000 nM.
Test [11] has as its target T5, human HER2. The experiment in a line: FACS, CHO-HER2.
In test [12] the target is T2, human HER1. As to the kind of experiment: FACS CHO-HER1, 667 nM.
The target in test [13] is T1, hHER3 full length. As to the kind of experiment: FACS competition with HRG1-β1-EGF, CHO-HER3.
Test [14] has as its target T2, human HER1. As to the kind of experiment: FACS, CHO-HER1.
For test [15], the target named is T1, hHER3 full length. The experiment in a line: FACS, 400 nM, competitor 17C08-biotin.
The target of test [16] is T6, cHER3ECD (Maccaca fascicularis HER3 extracellular domain) (Macaca fascicularis, UniProt P21860 20-643 (human entry)).
T6 construct: also called cyno HER3ECD; cyno HER3-ECD
T6 chain: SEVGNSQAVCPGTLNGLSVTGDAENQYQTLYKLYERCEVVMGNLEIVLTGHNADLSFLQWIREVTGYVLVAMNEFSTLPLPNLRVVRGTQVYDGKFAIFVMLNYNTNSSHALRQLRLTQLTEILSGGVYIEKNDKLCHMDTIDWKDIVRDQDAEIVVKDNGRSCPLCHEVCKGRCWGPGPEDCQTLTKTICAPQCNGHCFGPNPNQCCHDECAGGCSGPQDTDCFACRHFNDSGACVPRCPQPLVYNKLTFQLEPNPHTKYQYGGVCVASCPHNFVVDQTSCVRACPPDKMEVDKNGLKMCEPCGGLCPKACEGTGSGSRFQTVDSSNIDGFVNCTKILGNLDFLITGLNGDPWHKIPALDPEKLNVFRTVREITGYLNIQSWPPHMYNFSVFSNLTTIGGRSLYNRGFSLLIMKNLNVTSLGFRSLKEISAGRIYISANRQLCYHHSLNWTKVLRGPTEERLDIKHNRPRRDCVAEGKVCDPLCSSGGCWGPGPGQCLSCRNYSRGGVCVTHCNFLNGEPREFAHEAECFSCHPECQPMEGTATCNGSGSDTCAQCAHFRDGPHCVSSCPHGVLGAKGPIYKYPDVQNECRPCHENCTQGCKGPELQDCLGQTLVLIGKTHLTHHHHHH
As to the kind of experiment: ELISA, coated cHER3-ECD.

In test [17] the target is T1, hHER3 full length. The experiment in a line: cell-based or functional assay. This is another data set of the same source.
Test [18] has as its target T1, hHER3 full length. The experiment in a line: FACS, 400 nM, competitor 04F10-biotin.
Test [19] deals with T7, human HER3-Fc (R&D Systems, 348-RB) (human, UniProt P21860 20-643).
T7 construct: Bought; also called hHER3-Fc; Fc-HER3; Fc part of the bought chimera not given, not described
The experiment in a line: SPR, HER3-Fc captured by anti-Fc.

The target of test [20] is T5, human HER2. The experiment in a line: FACS CHO-HER2, 667 nM.
Test [21] concerns the target T3, human HER4. As to the kind of experiment: FACS CHO-HER4, 222 nM.
Test [22] concerns the target T3, human HER4. As to the kind of experiment: FACS, CHO-HER4.
For test [23], the target named is T8, Chimeric chicken Her3-human domain 1 (AA1-206 human, AA207-642 chicken) (chicken/human chimera).
T8 construct: Transmembrane and extracellular regions, on HEK293 cells
T8 chain: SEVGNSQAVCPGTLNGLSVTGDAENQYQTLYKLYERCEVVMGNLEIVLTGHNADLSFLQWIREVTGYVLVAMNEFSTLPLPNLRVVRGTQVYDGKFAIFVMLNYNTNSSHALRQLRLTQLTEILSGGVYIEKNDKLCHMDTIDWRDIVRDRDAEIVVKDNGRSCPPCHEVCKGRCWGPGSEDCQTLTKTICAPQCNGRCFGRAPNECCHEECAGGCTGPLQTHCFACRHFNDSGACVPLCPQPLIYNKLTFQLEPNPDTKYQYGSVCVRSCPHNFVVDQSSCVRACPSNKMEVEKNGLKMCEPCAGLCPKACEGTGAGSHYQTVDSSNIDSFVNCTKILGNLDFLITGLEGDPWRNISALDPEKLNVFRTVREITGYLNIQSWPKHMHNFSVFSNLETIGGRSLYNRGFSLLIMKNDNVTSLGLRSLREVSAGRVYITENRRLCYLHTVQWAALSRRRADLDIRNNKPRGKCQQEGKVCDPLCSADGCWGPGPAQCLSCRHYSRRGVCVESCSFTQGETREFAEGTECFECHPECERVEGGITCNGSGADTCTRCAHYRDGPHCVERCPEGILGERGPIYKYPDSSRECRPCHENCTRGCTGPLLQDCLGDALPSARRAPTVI
The experiment in a line: FACS, HEK293 with chimeric HER3.

Test [24] concerns the target T1, hHER3 full length. The experiment in a line: FACS, 400 nM, competitor 23F05-biotin.
For test [25], the target named is T1, hHER3 full length. As to the kind of experiment: FACS, 400 nM, competitor 04C07-biotin.
For test [26], the target named is T4, hHER3 ECD (human HER3 extracellular …). As to the kind of experiment: SPR off rate on HER3-ECD.
For test [27], the target named is T7, human HER3-Fc (R&D Systems, 348-RB). As to the kind of experiment: HRG competition alphascreen.
In test [28] the target is T1, hHER3 full length. As to the kind of experiment: cell-based or functional assay. The source holds these as a separate data set.
Test [29] addresses T7, human HER3-Fc (R&D Systems, 348-RB). As to the kind of experiment: HRG competition alphascreen. The source holds these as a separate data set.

Results on 9 molecules are retold here after patent publication US20130136748A1 (Ablynx, published 2013).

Numbering of substitutions follows the chain as printed. Names may count otherwise. Like-named read-outs stand apart in the source and are kept apart here.

T3 sequence (Q15303 26-1308 limits assumed): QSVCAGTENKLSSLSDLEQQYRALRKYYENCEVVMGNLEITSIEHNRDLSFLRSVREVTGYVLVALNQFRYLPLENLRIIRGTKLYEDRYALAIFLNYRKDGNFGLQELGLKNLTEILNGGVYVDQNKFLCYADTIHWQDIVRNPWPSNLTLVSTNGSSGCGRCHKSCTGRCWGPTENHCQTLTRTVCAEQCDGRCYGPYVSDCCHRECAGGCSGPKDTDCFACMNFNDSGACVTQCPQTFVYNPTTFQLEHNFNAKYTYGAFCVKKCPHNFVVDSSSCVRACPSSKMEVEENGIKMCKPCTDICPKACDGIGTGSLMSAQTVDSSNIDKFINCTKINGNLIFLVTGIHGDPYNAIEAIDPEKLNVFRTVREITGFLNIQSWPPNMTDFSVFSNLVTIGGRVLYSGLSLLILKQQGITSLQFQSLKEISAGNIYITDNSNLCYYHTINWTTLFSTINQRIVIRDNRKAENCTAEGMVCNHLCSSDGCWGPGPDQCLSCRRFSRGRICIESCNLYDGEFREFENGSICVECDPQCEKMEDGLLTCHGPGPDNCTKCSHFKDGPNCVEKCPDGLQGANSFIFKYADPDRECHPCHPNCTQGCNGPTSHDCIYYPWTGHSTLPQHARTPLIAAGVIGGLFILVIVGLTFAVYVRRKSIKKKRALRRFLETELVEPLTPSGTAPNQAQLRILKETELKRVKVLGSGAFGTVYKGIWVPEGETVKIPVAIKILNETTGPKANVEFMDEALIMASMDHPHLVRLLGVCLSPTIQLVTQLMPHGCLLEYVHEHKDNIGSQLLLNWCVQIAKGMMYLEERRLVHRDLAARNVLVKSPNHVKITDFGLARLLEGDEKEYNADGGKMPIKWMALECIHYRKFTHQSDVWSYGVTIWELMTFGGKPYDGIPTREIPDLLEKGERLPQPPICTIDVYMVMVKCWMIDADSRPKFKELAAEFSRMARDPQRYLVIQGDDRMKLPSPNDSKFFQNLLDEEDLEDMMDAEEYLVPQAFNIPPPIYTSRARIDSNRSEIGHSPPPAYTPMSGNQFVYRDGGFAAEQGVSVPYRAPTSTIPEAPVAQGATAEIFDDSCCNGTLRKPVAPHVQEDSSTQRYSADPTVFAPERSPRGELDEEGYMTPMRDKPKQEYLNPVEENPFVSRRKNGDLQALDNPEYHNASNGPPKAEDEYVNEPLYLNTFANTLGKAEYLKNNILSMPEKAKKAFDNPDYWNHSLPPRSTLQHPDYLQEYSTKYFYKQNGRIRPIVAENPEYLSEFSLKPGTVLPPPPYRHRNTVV

B1: 18F05 (VHH)
VHH: EVQLVESGGGLVQPGGSLRLSCVASGFTFSSYWMYWVRQAPGKGVEWVSAISPGGVERYTDSVKGRFTISRDNAKNTLYLQMNSLKSEDTAMYYCARLTSFATPESQGTQVTVSS
notes: also called 18F5
As to B1, in [1], the “IC50, HRG1-β1 induced pAkt, MCF-7” value is 8.04e-09 M. In addition, in [1], the “IC50, HRG1-β1 induced pERK1/2, MCF-7” value is 8.98e-08 M. In addition, the MCF is 133 in test [2]; 120 in test [3]; 154 in test [5]; 149 in test [8]; 436 in test [9]; 256 in [10]. For the same molecule, the MCF in test [12] turned out to be 60; in test [20], 347; in test [21], 149. Also, the EC50 in test [4] and in [16] was 0.29 nM in each case. The “% competition” value in test [6] worked out at 0%; in test [7], 0%; in test [15], 0%; in [18] it was 15%; in test [24], 0%; in test [25] it was 100%. For the same molecule, the binding result is “no binding (tested: 2000 nM)” in test [11], “no binding (tested: 2000 nM)” in test [14], “no binding (tested: 2000 nM)” in [22] and “binds” in [23]. This molecule showed an IC50 in [13] of 20.1 nM. Also, in test [17], the “IC50, HRG1-β1 induced pHER3, MCF-7” value came out at 1.53e-09 M. Further, the “IC50, HRG1-β1 induced pHER3, MDA-MB468” value in test [17] is 1.8e-08 M. In addition, in [19], the Kd came out at 0.24 nM. Moreover, the kon in test [19] was 427000 M⁻¹ s⁻¹.

B2: HER3MS00076 (VHH)
VHH: EVQLVESGGGLVQPGGSLRLSCAASGSIGGLNAMAWYRQAPGKERELVAGIFGVGSTRYADSVKGRFTISRDISKNTVFLQMNSLRSEDTAVYYCRMSSVTRGSSDYWGQGTLVTVSS
notes: 17B05 + A74S, N83R, Q108L; also called HER3MS0076; 17B05 basic variant
The molecule B2 had a koff in test [26] of 0.00017 s⁻¹. Further, the IC50 in [27] was found to be 0.788 nM.

B3: HER3MS00083 (VHH)
VHH: B2 VHH with I73N, F79Y, R96A
notes: also called HER3MS0083
In turn, B3 returned a dissociation rate constant (koff) in test [26] of 0.00084 s⁻¹. In test [27], the half-inhibitory concentration (IC50) stood at 4.95 nM.

B4: HER3MS00084 (VHH)
VHH: B2 VHH with S87P
notes: 17B05 basic + S84P; also called HER3MS0084
As for B4, the off-rate constant (koff) in [26] was found to be 0.00018 s⁻¹. This molecule also had an IC50 in [27] of 0.94 nM.

B5: HER3MS00085 (VHH)
VHH: B2 VHH with S87A
notes: 17B05 basic + S84A; also called HER3MS0085
As to B5, the dissociation rate constant (koff) in [26] is 0.00019 s⁻¹. In test [27], this molecule had an IC50 of 0.76 to 0.94 nM.

B6: HER3MS00080 (VHH)
VHH: B2 VHH with I73N, F79Y
notes: 17B05 basic + I73N + F79Y; also called HER3MS0080
On to B6, for which the koff in [26] was 0.00018 s⁻¹. The IC50 in test [27] worked out at 0.731 nM.

B7: HER3MS00130 (VHH)
VHH: EVQLVESGGGLVQPGGSLRLSCAASGFTFSSYPMSWVRQAPGKGPAWVSTVSPGGITTSYADSVKGRFTISRDNSKNTLYLQMNSLRPEDTAVYYCLRDLGNRGQGTLVTVSS
notes: 04C07 basic + N101G
Turning to B7, the “IC50 pHER3, HRG1-β1 stimulated MCF7” value in test [28] was 9.38e-09 M. Moreover, in [29], the IC50 is 0.88 nM.

B8: HER3MS00131 (VHH)
VHH: B7 VHH with A46E, G101S
notes: 04C07 basic + A46E + N101S
For B8, in test [28], the “IC50 pHER3, HRG1-β1 stimulated MCF7” value came to 2.26e-07 M. The IC50 in test [29] came out at 5.8 nM.

B9: HER3MS00132 (VHH)
VHH: B7 VHH with G101S
notes: 04C07 basic + N101S
For B9, in test [28], the “IC50 pHER3, HRG1-β1 stimulated MCF7” value turned out to be 1.31e-08 M. The molecule further showed an IC50 in test [29] of 1 nM.
